According to US20130078234A1 (Daiichi Sankyo, published 2013):
Substitutions are numbered along the chain they refer to.

B1: chimeric antibody M30 (antibody, human IgG1, kappa)
heavy: not shown
light: QIVLSQSPTILSASPGEKVTMTCRASSRLIYMHWYQQKPGSSPKPWIYATSNLASGVPARFSGSGSGTSYSLTISRVEAEDAATYYCQQWNSNPPTFGTGTKLELKRTVAAPSVFIFPPSDEQLKSGTASVVCLLNNFYPREAKVQWKVDNALQSGNSQESVTEQDSKDSTYSLSSTLTLSKADYEKHKVYACEVTHQGLSSPVTKSFNRGEC
notes: Mouse M30 variable regions on human IgG1 / human kappa constant regions; also called cM30; cM30 antibody
B2: humanized M30 antibody M30-H1-L1 (antibody, human IgG1, kappa, V domains shown)
VH: QVQLVQSGAEVKKPGSSVKVSCKASGYTFTNYVMHWVRQAPGQGLEWMGYINPYNDDVKYNEKFKGRVTITADESTSTAYMELSSLRSEDTAVYYCARWGYYGSPLYYFDYWGQGTLVTVSS
VL: EIVLTQSPATLSLSPGERATLSCRASSRLIYMHWYQQKPGQAPRLLIYATSNLASGIPARFSGSGSGTDFTLTISRLEPEDFAVYYCQQWNSNPPTFGQGTKVEIKR
notes: Human IgG1/kappa
B3: humanized M30 antibody M30-H4-L3 (antibody, human IgG1, kappa, V domains shown)
VH: B2 VH with Q1E, R38K, M48I, R67K, V68A, I70Q, A72S, E74K
VL: B2 VL with E1Q, T5S, S22T, Q41S, R44K, L46W, D69S, F70Y
notes: Human IgG1/kappa
B4: humanized M30 antibody M30-H1-L2 (antibody, human IgG1, kappa, V domains shown)
VH: B2 VH
VL: B2 VL with L46W, F70Y
notes: Human IgG1/kappa
B5: humanized M30 antibody M30-H4-L2 (antibody, human IgG1, kappa, V domains shown)
VH: B2 VH with Q1E, R38K, M48I, R67K, V68A, I70Q, A72S, E74K
VL: B2 VL with L46W, F70Y
notes: Human IgG1/kappa
B6: humanized M30 antibody M30-H4-L1 (antibody, human IgG1, kappa, V domains shown)
VH: B2 VH with Q1E, R38K, M48I, R67K, V68A, I70Q, A72S, E74K
VL: B2 VL
notes: Human IgG1/kappa
B7: humanized M30 antibody M30-H1-L6 (antibody, human IgG1, kappa, V domains shown)
VH: B2 VH
VL: B2 VL with L45P
notes: Human IgG1/kappa
B8: humanized M30 antibody M30-H1-L3 (antibody, human IgG1, kappa, V domains shown)
VH: B2 VH
VL: B2 VL with E1Q, T5S, S22T, Q41S, R44K, L46W, D69S, F70Y
notes: Human IgG1/kappa
B9: humanized M30 antibody M30-H1-L5 (antibody, human IgG1, kappa, V domains shown)
VH: B2 VH
VL: B2 VL with E1Q, T5S, S22T, Q41S, R44K, L45P, L46W, D69S, F70Y
notes: Human IgG1/kappa
B10: humanized M30 antibody M30-H1-L4 (antibody, human IgG1, kappa, V domains shown)
VH: B2 VH
VL: B2 VL with L45P, R76S
notes: Human IgG1/kappa; also called M30-H1-L4 antibody
B11: humanized M30 antibody M30-H1-L7 (antibody, human IgG1, kappa, V domains shown)
VH: B2 VH
VL: B2 VL with L45P, F70Y
notes: Human IgG1/kappa
B12: humanized M30 antibody M30-H4-L4 (antibody, human IgG1, kappa, V domains shown)
VH: B2 VH with Q1E, R38K, M48I, R67K, V68A, I70Q, A72S, E74K
VL: B2 VL with L45P, R76S
notes: Human IgG1/kappa

biological target: T1, extracellular domain polypeptide of a recombinant B7-H3 variant 2 antigen (R&D Systems, Inc., #2318-B3-050/CF) (human, UniProt Q5ZPR3 29-466); experiment: SPR (Biacore), antibody captured on anti-human IgG, B7-H3 variant 2 extracellular domain as analyte; positive control
T1 construct: Bought recombinant protein; also called recombinant B7-H3 antigen; B7-H3 antigen
T1 sequence: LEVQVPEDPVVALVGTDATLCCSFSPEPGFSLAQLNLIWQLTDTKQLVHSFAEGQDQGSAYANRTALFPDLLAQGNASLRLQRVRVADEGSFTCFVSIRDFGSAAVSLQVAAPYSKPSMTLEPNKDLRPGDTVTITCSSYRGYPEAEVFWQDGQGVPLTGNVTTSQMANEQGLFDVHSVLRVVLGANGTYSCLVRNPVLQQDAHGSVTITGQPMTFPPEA
Description: (§1) The binding property of the humanized M30 antibody to human B7-H3 which is an antigen was measured by a surface plasmon resonance (SPR) device (Biacore, Inc.). According to a common procedure, an anti-human IgG antibody was immobilized on a sensor chip, and then, each of the purified samples of the humanized M30 antibodies obtained in the above 10)-4 was bound thereto. Thereafter, an extracellular domain polypeptide of the B7-H3 variant 2 antigen (manufactured by R&D Systems, Inc., #2318-B3-050/CF) was added thereto at different concentrations, and the amount of the antigen bound to the antibody in a running buffer (phosphate buffer, 0.05% SP20) was measured over time. The measured amount was analyzed with a dedicated software (BIAevaluation) and a dissociation constant (Kd [M]) was calculated. The measurement was performed using the cM30 antibody as a positive control for each measurement operation.

Binder | Kd
B1 | 0.73 nM

biological target: T1, extracellular domain polypeptide of a …; experiment: SPR (Biacore), antibody captured on anti-human IgG, B7-H3 variant 2 extracellular domain as analyte
Description: as §1

Binder | Kd
B2 | 87 nM
B3 | 160 nM
B4 | 100 nM
B5 | 140 nM
B6 | 130 nM
B7 | 3.4 nM
B8 | 100 nM
B9 | 1.9 nM
B10 | 16 nM
B11 | 2.7 nM
B12 | 12 nM

biological target: T1, extracellular domain polypeptide of a …; experiment: competition ELISA on plate-coated B7-H3 variant 2 extracellular domain polypeptide; competitor biotinylated M30 (bM30, 5 ug/ml), detected with streptavidin-HRP, OD 450 nm
Description: Each of the extracellular domain polypeptide of the B7-H3 variant 1 (manufactured by R&D Systems, Inc., #1949-B3-050/CF) and the extracellular domain polypeptide of the B7-H3 variant (manufactured by R&D Systems, Inc., #2318-B3-050/CF) was diluted to 0.5 μg/ml with a coating buffer and the resulting solution was dispensed at 100 μL/well in an immunoplate (manufactured by Nunc, Inc., #442404). Then, the plate was left to stand overnight at 4° C., whereby the protein was adsorbed to the plate. On the next day, an assay diluent was dispensed at 200 μL/well, and the plate was left to stand at room temperature for 4 hours.

Binder | IC50 (read off the curve)
B1 | ~0.4 µg/mL
B10 | ~0.5 µg/mL

biological target: T1, extracellular domain polypeptide of a …; experiment: SPR, antibody captured on immobilized anti-human IgG, B7-H3 variant 2 extracellular domain as analyte; cM30 chimeric antibody, captured on anti-human IgG; experiment 8)-1
Description: The affinity between the M30 antibody or the cM30 antibody and the B7-H3 antigen was measured by a surface plasmon resonance (SPR) device (GE Healthcare Corporation). According to a common procedure, an anti-mouse IgG or an anti-human IgG antibody was immobilized on a sensor chip, and then, the M30 antibody sample or the cM30 antibody was bound thereto. Thereafter, an extracellular domain polypeptide of a recombinant B7-H3 variant 2 antigen (manufactured by R&D Systems, Inc., #2318-B3-050/CF) was added thereto at different concentrations, and the amount of the antigen bound to the antibody in a running buffer (phosphate buffer, 0.05% SP20) was measured over time. The measured amount was analyzed with a dedicated software (BIAevaluation Version 4.1, GE Healthcare Corporation) and a dissociation constant was calculated.

Binder | Kd
B1 | 3.43 nM
